Experimental data: US20240034762A1 (YALE UNIVERSITY, published 2024)
Values belong to the binder of their own block, whether it stands above or below them.

Assays:
[1] = target: T1, full-length human α-Klotho with a C-terminal HA-tag on HEK293 cells stably co-expressing FGFR1c (human, UniProt Q9UEF7 34-1012); assay: cell-based or functional assay
T1 sequence: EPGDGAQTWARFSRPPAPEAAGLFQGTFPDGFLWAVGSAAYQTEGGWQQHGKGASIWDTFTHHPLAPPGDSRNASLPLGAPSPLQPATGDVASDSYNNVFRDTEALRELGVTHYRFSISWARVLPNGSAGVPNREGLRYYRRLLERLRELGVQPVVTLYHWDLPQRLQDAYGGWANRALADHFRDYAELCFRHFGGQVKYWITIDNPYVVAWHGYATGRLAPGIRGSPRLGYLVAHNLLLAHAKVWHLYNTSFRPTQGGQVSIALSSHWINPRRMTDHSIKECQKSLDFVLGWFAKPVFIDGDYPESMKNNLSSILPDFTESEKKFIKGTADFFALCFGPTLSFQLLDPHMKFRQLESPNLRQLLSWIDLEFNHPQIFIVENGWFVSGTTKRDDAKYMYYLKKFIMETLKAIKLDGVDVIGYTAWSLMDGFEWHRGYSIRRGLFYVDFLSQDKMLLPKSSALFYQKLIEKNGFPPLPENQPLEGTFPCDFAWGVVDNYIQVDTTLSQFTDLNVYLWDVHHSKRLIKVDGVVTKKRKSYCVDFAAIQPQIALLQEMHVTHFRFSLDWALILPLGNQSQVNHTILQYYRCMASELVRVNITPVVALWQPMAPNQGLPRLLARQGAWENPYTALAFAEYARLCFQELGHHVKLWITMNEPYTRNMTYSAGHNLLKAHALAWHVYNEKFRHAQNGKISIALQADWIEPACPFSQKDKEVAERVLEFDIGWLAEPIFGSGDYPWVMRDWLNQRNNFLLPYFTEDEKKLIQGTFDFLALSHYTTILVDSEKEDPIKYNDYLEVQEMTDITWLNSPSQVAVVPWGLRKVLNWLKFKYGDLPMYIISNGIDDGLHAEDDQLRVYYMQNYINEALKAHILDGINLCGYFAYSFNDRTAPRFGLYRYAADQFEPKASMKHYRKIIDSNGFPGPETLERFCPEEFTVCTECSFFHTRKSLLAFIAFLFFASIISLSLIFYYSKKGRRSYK

[2] = target: T2, soluble extracellular domain of human α-Klotho (aa 1-980) fused to a 6xHis tag (human, UniProt Q9UEF7 34-980); assay: BLI, FGF23 variant on the sensor, sKLA as analyte
T2 construct: Secreted from HEK293 EBNA cells; also called sKLA; soluble α-Klotho
T2 sequence: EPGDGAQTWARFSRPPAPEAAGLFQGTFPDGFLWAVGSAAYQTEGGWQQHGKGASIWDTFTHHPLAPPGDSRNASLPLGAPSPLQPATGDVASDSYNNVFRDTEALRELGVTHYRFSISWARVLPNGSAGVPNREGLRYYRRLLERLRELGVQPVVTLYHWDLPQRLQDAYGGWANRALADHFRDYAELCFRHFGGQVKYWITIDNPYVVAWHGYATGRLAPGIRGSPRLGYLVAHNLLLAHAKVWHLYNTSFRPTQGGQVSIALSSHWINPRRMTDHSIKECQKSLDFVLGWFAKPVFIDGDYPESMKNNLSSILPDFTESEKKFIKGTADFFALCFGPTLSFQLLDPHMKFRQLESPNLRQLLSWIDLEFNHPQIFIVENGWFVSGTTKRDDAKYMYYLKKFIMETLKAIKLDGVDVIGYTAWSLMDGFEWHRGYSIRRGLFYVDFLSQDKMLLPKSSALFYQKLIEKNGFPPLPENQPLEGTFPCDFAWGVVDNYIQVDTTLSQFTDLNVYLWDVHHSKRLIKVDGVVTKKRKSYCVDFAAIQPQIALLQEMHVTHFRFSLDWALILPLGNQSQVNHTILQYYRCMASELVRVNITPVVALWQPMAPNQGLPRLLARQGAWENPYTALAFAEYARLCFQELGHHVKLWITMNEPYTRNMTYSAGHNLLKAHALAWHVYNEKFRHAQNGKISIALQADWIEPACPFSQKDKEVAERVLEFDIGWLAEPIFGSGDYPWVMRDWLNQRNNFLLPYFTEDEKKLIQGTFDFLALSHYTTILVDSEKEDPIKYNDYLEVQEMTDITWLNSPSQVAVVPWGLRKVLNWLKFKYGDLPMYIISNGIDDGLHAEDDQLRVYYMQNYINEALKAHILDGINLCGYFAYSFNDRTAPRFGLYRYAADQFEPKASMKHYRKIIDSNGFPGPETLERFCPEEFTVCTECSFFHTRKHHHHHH

activation of MAPK response in HEK293 cells co-expressing FGFR1c and α-Klotho; ligand concentration at saturation [1]: 0.1 nM
B1: human FGF23-R2 (aa 25-179 fused to aa 212-243) (ligand)
chain: YPNASPLLGSSWGGLIHLYTATARNSYHLQIHKNGHVDGAPHQTIYSALMIRSEDAGFVVITGVMSRRYLCMDFRGNIFGSHYFDPENCRFQHQTLENGYDVYHSPQYHFLVSLGAAKAAFLPGMNPPPYSQFLSRRNEIPLIHFNTPIPRQHTQSAEDNSPMASDPLGVVRGGRVNTHAGGTGPEG

B2: human FGF23 D188A/D222A double mutant (ligand)
chain: DYKDDDDKYPNASPLLGSSWGGLIHLYTATARNSYHLQIHKNGHVDGAPHQTIYSALMIRSEDAGFVVITGVMSRRYLCMDFRGNIFGSHYFDPENCRFQHQTLENGYDVYHSPQYHFLVSLGAAKAAFLPGMNPPPYSQFLSRRNEIPLIHFNTPIPRQHTQSAEDDSERAPLNVLKPRARMTPAPASCSQELPSAEDNSPMASAPLGVVRGGRVNTHAGGTGPEGCRPFAKFI
notes: also called D188A/D222A double mutations
binding result [2]: no binding (tested: sKLA 6.25 nM to 200 nM)

activation of MAPK response in HEK293 cells co-expressing FGFR1c and α-Klotho; ligand concentration at saturation [1]: 0.1 nM
B3: human FGF23-R1 (aa 25-205) expressed in E. coli (ligand)
chain: YPNASPLLGSSWGGLIHLYTATARNSYHLQIHKNGHVDGAPHQTIYSALMIRSEDAGFVVITGVMSRRYLCMDFRGNIFGSHYFDPENCRFQHQTLENGYDVYHSPQYHFLVSLGAAKAAFLPGMNPPPYSQFLSRRNEIPLIHFNTPIPRQHTQSAEDDSERDPLNVLKPRARMTPAPAS
